According to patent USRE48267E1, “Variants of C-type natriuretic peptide” (priority 2009, dated 2020):
Bridges are numbered along the chain shown (N, C = ends). Where no end group is shown, it is not given here. The star is where a group is joined. Heptanoyl = CCCCCCC(=O)*

T1: NPR-B (natriuretic peptide receptor B), murine, expressed endogenously on NIH3T3 cells (murine, UniProt Q6VVW5 17-1047)
T1 sequence (looked up): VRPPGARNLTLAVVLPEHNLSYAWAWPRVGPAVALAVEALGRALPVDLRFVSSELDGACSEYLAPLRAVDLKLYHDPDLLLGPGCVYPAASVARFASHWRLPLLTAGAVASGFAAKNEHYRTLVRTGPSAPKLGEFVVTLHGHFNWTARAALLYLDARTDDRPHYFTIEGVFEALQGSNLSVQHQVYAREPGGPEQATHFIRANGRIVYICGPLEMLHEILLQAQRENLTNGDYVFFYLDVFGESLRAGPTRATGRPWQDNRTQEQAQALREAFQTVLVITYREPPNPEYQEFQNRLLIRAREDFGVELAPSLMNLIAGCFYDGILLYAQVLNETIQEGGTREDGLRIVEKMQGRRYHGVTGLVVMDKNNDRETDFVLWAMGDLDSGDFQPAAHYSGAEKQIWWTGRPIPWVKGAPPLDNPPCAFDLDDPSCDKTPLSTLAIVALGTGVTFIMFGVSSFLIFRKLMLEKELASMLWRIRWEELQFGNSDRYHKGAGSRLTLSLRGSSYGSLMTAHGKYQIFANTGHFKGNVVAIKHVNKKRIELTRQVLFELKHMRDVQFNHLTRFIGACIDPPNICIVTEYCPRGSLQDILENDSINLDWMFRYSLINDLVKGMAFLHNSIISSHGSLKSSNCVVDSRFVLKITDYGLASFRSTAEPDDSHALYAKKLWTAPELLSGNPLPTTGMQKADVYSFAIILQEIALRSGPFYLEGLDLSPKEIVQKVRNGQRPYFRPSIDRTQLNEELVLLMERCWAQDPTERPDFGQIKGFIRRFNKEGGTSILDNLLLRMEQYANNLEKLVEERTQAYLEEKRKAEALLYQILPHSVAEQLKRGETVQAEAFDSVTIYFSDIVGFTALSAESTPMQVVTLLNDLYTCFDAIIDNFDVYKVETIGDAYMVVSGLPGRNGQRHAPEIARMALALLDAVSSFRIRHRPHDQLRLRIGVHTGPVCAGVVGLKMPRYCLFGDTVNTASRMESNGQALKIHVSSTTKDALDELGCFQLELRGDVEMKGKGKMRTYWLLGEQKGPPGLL

B1: CNP53 (peptide)
peptide: DLRVDTKSRAAWARLLQEHPNARKYKGANKKGLSKGCFGLKLDRIGSMSGLGC
B2: CNP22, K4R, K10R, N-term.--N-term. dimer/disuccinimidyl glutarate (peptide)
peptide: GLSRGCFGLRLDRIGSMSGLGC
modifications: ends and bridges not checked; also: dimer joined N-terminus to N-terminus by disuccinimidyl glutarate
B3: CNP22, K4R, K10R, N-term.--N-term. dimer/Bis-PEO5 (peptide)
peptide: GLSRGCFGLRLDRIGSMSGLGC
modifications: ends and bridges not checked; also: dimer joined N-terminus to N-terminus by Bis-PEO5

These binders were tested against T1, NPR-B (natriuretic peptide receptor B), … (assay: cell-based or functional assay).

Row | Binder | cGMP response rel. to 1 uM CNP22; 10 nM peptide, NIH3T3 cells | cGMP response rel. to 1 uM CNP22; 1 uM peptide, NIH3T3 cells
1 | GLSRGCFGLKLDRIGSMSGLSC [CNP22, K4R, G21S] | 7 rel. to 1 uM CNP22 (100) | 39 rel. to 1 uM CNP22 (100)

Biological target: T1, NPR-B (natriuretic peptide receptor B), …
Experiment: cell-based or functional assay
Remark: another data set of the same source

Row | Binder | cGMP response rel. to 1 uM CNP22; 10 nM peptide, NIH3T3 cells | cGMP response rel. to 1 uM CNP22; 1 uM peptide, NIH3T3 cells
2 | AAWARLLQEHPNAGLSKGCFGLKLDRIGSMSGLGC (ends and bridges not checked; cysteine pairing not given here) [AAWARLLQEHPNA-CNP22] | 24 rel. to 1 uM CNP22 (100) | 76 rel. to 1 uM CNP22 (100)
3 | GAHHPHEHDTHGANQQGLSKGCFGLKLDRIGSMSGLGC [GAHHPHEHDTHGANQQ-CNP22 (HRGP fragment)] | 14 rel. to 1 uM CNP22 (100) | 77 rel. to 1 uM CNP22 (100)
4 | GANSSGLSRGCFGLKLDRIGSMSGLGC [GANSS-CNP22, K4R] | 27 rel. to 1 uM CNP22 (100) | 88 rel. to 1 uM CNP22 (100)
5 | GERAFKAWAVARLSQGLSKGCFGLKLDRIGSMSGLGC [GERAFKAWAVARLSQ-CNP22 (HSA fragment)] | 15 rel. to 1 uM CNP22 (100) | 87 rel. to 1 uM CNP22 (100)
6 | GQPREPQVYTLPPSGLSKGCFGLKLDRIGSMSGLGC [GQPREPQVYTLPPS-CNP22 (IgG1(Fc) fragment)] | 23 rel. to 1 uM CNP22 (100) | 72 rel. to 1 uM CNP22 (100)
7 | RGLSRGCFGLKLDRIGSMSGLGC [R-CNP22, K4R] | 54 rel. to 1 uM CNP22 (100) | 106 rel. to 1 uM CNP22 (100)
8 | B1 | 61 rel. to 1 uM CNP22 (100) | 101 rel. to 1 uM CNP22 (100)
9 | SPKMVQGSGCFGLKLDRIGSMSGLGCKVLRRH (disulfide 10-26 (inferred)) [SPKMVQGSG-CNP17-KVLRRH (BNP tails)] | 25 rel. to 1 uM CNP22 (100) | 102 rel. to 1 uM CNP22 (100)
10 | GANRRGLSRGCFGLKLDRIGSMSGLGC [GANRR-CNP22, K4R] | 59 rel. to 1 uM CNP22 (100) | 105 rel. to 1 uM CNP22 (100)
11 | PGQEHPNARKYKGANKKGLSKGCFGLKLDRIGSMSGLGC (ends and bridges not checked; cysteine pairing not given here) [PGQEHPNARKYKGANKK-CNP22 (Pro-Gly-CNP37)] | 49 rel. to 1 uM CNP22 (100) | 103 rel. to 1 uM CNP22 (100)
12 | GHKSEVAHRFKGANKKGLSKGCFGLKLDRIGSMSGLGC [GHKSEVAHRFKGANKK-CNP22 (HSA-CNP27)] | 51 rel. to 1 uM CNP22 (100) | 109 rel. to 1 uM CNP22 (100)
13 | AAWARLLQEHPNARGLSKGCFGLKLDRIGSMSGLGC (ends and bridges not checked; cysteine pairing not given here) [AAWARLLQEHPNAR-CNP22] | 36 rel. to 1 uM CNP22 (100) | 84 rel. to 1 uM CNP22 (100)
14 | GVPQVSTSTGANQQGLSRGCFGLKLDRIGSMSGLGC [GVPQVSTSTGANQQ-CNP22, K4R (HSA fragment)] | 3 rel. to 1 uM CNP22 (100) | 35 rel. to 1 uM CNP22 (100)
15 | GQTHSSGTQSGANQQGLSRGCFGLKLDRIGSMSGLGC [GQTHSSGTQSGANQQ-CNP22, K4R (fibrinogen)] | 12 rel. to 1 uM CNP22 (100) | 115 rel. to 1 uM CNP22 (100)
16 | B2 | 19 rel. to 1 uM CNP22 (100) | 44 rel. to 1 uM CNP22 (100)
17 | PGHKSEVAHRFKGANKKGLSKGCFGLKLDRIGSMSGLGC [PGHKSEVAHRFKGANKK-CNP22 (Pro-HSA-CNP27)] | 32 rel. to 1 uM CNP22 (100) | 107 rel. to 1 uM CNP22 (100)
18 | GQEHPNARKYKGANPKGLSKGCFGLKLDRIGSMSGLGC (ends and bridges not checked; cysteine pairing not given here) [GQEHPNARKYKGANPK-CNP22 (modified CNP37)] | 19 rel. to 1 uM CNP22 (100) | 61 rel. to 1 uM CNP22 (100)
19 | GQEHPNARKYKGANQKGLSKGCFGLKLDRIGSMSGLGC (ends and bridges not checked; cysteine pairing not given here) [GQEHPNARKYKGANQK-CNP22 (modified CNP37)] | 60 rel. to 1 uM CNP22 (100) | 121 rel. to 1 uM CNP22 (100)
20 | GQEHPNARKYKGANQQGLSKGCFGLKLDRIGSMSGLGC (ends and bridges not checked; cysteine pairing not given here) [GQEHPNARKYKGANQQ-CNP22 (modified CNP37)] | 9 rel. to 1 uM CNP22 (100) | 57 rel. to 1 uM CNP22 (100)
21 | GQEHPNARKYKGANKKGLSKGCFGLKLDRIGSMSGLGC (ends and bridges not checked; cysteine pairing not given here) [GQEHPNARKYKGANKK-CNP22 (Gly-CNP37)] | 50 rel. to 1 uM CNP22 (100) | 98 rel. to 1 uM CNP22 (100)
22 | GANPRGLSRGCFGLKLDRIGSMSGLGC [GANPR-CNP22, K4R] | 50 rel. to 1 uM CNP22 (100) | 105 rel. to 1 uM CNP22 (100)
23 | GHHSHEQHPHGANQQGLSKGCFGLKLDRIGSMSGLGC [GHHSHEQHPHGANQQ-CNP22 (HRGP fragment)] | 16 rel. to 1 uM CNP22 (100) | 95 rel. to 1 uM CNP22 (100)
24 | DLRVDTKSRAAWARGLSKGCFGLKLDRIGSMSGLGC [DLRVDTKSRAAWAR-CNP22] | 34 rel. to 1 uM CNP22 (100) | 101 rel. to 1 uM CNP22 (100)
25 | ERGLSRGCFGLKLDRIGSMSGLGC [ER-CNP22, K4R] | 38 rel. to 1 uM CNP22 (100) | 113 rel. to 1 uM CNP22 (100)
26 | Heptanoyl-ELSKGCFGLKLDRIGSMSGLGC (ends and bridges not checked) [Heptanoic acid (N-term.)-CNP22, G1E] | 32 rel. to 1 uM CNP22 (100) | 84 rel. to 1 uM CNP22 (100)
27 | GSTGQWHSESGANQQGLSRGCFGLKLDRIGSMSGLGC [GSTGQWHSESGANQQ-CNP22, K4R (fibrinogen)] | 2 rel. to 1 uM CNP22 (100) | 33 rel. to 1 uM CNP22 (100)
28 | B3 | 19 rel. to 1 uM CNP22 (100) | 41 rel. to 1 uM CNP22 (100)
29 | GQPREPQVYTGANQQGLSRGCFGLKLDRIGSMSGLGC [GQPREPQVYTGANQQ-CNP22, K4R (IgG1(Fc) fragment)] | 2 rel. to 1 uM CNP22 (100) | 32 rel. to 1 uM CNP22 (100)
30 | GANQQGLSRGCFGLKLDRIGSMSGLGC [GANQQ-CNP22, K4R] | 44 rel. to 1 uM CNP22 (100) | 95 rel. to 1 uM CNP22 (100)
31 | QEHPNARKYKGANKKGLSKGCFGLKLDRIGSMSGLGC (ends and bridges not checked; cysteine pairing not given here) [QEHPNARKYKGANKK-CNP22 (CNP37)] | 43 rel. to 1 uM CNP22 (100) | 97 rel. to 1 uM CNP22 (100)
